*1 amine or outer side, *2 acyl side, *3 side chain or, on linkers, in order; H or OH if unused. Where no end group is shown, it is not given here. Side-chain parts run from the residue outwards. [ ]: non-standard residue; d: D form. The star is where a group is joined. γGlu = O=C(O)[C@H](CCC(=O)[*:2])N[*:1]; Palmitoyl = CCCCCCCCCCCCCCCC(=O)*; Aib = CC(C)(N)C(=O)O
T1: human GIP receptor (human, UniProt P48546 22-466)
T1 sequence (looked up): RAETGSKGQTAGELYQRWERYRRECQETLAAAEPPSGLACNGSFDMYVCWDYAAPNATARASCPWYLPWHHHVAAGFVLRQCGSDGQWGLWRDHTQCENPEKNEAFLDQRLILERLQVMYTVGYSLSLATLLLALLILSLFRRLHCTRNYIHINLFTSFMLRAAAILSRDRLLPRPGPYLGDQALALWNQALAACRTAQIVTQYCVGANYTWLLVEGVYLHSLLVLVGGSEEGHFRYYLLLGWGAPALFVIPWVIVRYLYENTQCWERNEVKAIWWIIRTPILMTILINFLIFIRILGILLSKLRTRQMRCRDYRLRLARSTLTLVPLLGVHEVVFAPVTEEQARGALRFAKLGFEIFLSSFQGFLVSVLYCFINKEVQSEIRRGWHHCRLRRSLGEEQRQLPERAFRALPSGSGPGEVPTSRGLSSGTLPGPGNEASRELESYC

B1: SEQ ID NO: 26 (peptide)
peptide: Y[Aib]EGTFTSDLSIQK([γGlu-Palmitoyl])EKRAAQEFIEWLKNTGPSSGAPPPS-NH2
modifications: N-terminus assumed
SMILES: CCCCCCCCCCCCCCCC(=O)N[C@@H](CCC(=O)NCCCC[C@H](NC(=O)[C@H](CCC(N)=O)NC(=O)[C@@H](NC(=O)[C@H](CO)NC(=O)[C@H](CC(C)C)NC(=O)[C@H](CC(=O)O)NC(=O)[C@H](CO)NC(=O)[C@@H](NC(=O)[C@H](Cc1ccccc1)NC(=O)[C@@H](NC(=O)CNC(=O)[C@H](CCC(=O)O)NC(=O)C(C)(C)NC(=O)[C@@H](N)Cc1ccc(O)cc1)[C@@H](C)O)[C@@H](C)O)[C@@H](C)CC)C(=O)N[C@@H](CCC(=O)O)C(=O)N[C@@H](CCCCN)C(=O)N[C@@H](CCCNC(=N)N)C(=O)N[C@@H](C)C(=O)N[C@@H](C)C(=O)N[C@@H](CCC(N)=O)C(=O)N[C@@H](CCC(=O)O)C(=O)N[C@@H](Cc1ccccc1)C(=O)N[C@H](C(=O)N[C@@H](CCC(=O)O)C(=O)N[C@@H](Cc1c[nH]c2ccccc12)C(=O)N[C@@H](CC(C)C)C(=O)N[C@@H](CCCCN)C(=O)N[C@@H](CC(N)=O)C(=O)N[C@H](C(=O)NCC(=O)N1CCC[C@H]1C(=O)N[C@@H](CO)C(=O)N[C@@H](CO)C(=O)NCC(=O)N[C@@H](C)C(=O)N1CCC[C@H]1C(=O)N1CCC[C@H]1C(=O)N1CCC[C@H]1C(=O)N[C@@H](CO)C(N)=O)[C@@H](C)O)[C@@H](C)CC)C(=O)O
B2: SEQ ID NO: 25 (peptide)
peptide: Y[Aib]EGTFTSDLSIQK([γGlu-Palmitoyl])ESRAAQEFIEWLKNTGPSSGAPPPS-NH2
modifications: N-terminus assumed
SMILES: CCCCCCCCCCCCCCCC(=O)N[C@@H](CCC(=O)NCCCC[C@H](NC(=O)[C@H](CCC(N)=O)NC(=O)[C@@H](NC(=O)[C@H](CO)NC(=O)[C@H](CC(C)C)NC(=O)[C@H](CC(=O)O)NC(=O)[C@H](CO)NC(=O)[C@@H](NC(=O)[C@H](Cc1ccccc1)NC(=O)[C@@H](NC(=O)CNC(=O)[C@H](CCC(=O)O)NC(=O)C(C)(C)NC(=O)[C@@H](N)Cc1ccc(O)cc1)[C@@H](C)O)[C@@H](C)O)[C@@H](C)CC)C(=O)N[C@@H](CCC(=O)O)C(=O)N[C@@H](CO)C(=O)N[C@@H](CCCNC(=N)N)C(=O)N[C@@H](C)C(=O)N[C@@H](C)C(=O)N[C@@H](CCC(N)=O)C(=O)N[C@@H](CCC(=O)O)C(=O)N[C@@H](Cc1ccccc1)C(=O)N[C@H](C(=O)N[C@@H](CCC(=O)O)C(=O)N[C@@H](Cc1c[nH]c2ccccc12)C(=O)N[C@@H](CC(C)C)C(=O)N[C@@H](CCCCN)C(=O)N[C@@H](CC(N)=O)C(=O)N[C@H](C(=O)NCC(=O)N1CCC[C@H]1C(=O)N[C@@H](CO)C(=O)N[C@@H](CO)C(=O)NCC(=O)N[C@@H](C)C(=O)N1CCC[C@H]1C(=O)N1CCC[C@H]1C(=O)N1CCC[C@H]1C(=O)N[C@@H](CO)C(N)=O)[C@@H](C)O)[C@@H](C)CC)C(=O)O
B3: SEQ ID NO: 29 (peptide)
peptide: Y[Aib]QGTFTSDLSIQK([γGlu-Palmitoyl])DSRAAQEFIEWLKAGGPSSGAPPPS-NH2
modifications: N-terminus assumed
SMILES: CCCCCCCCCCCCCCCC(=O)N[C@@H](CCC(=O)NCCCC[C@H](NC(=O)[C@H](CCC(N)=O)NC(=O)[C@@H](NC(=O)[C@H](CO)NC(=O)[C@H](CC(C)C)NC(=O)[C@H](CC(=O)O)NC(=O)[C@H](CO)NC(=O)[C@@H](NC(=O)[C@H](Cc1ccccc1)NC(=O)[C@@H](NC(=O)CNC(=O)[C@H](CCC(N)=O)NC(=O)C(C)(C)NC(=O)[C@@H](N)Cc1ccc(O)cc1)[C@@H](C)O)[C@@H](C)O)[C@@H](C)CC)C(=O)N[C@@H](CC(=O)O)C(=O)N[C@@H](CO)C(=O)N[C@@H](CCCNC(=N)N)C(=O)N[C@@H](C)C(=O)N[C@@H](C)C(=O)N[C@@H](CCC(N)=O)C(=O)N[C@@H](CCC(=O)O)C(=O)N[C@@H](Cc1ccccc1)C(=O)N[C@H](C(=O)N[C@@H](CCC(=O)O)C(=O)N[C@@H](Cc1c[nH]c2ccccc12)C(=O)N[C@@H](CC(C)C)C(=O)N[C@@H](CCCCN)C(=O)N[C@@H](C)C(=O)NCC(=O)NCC(=O)N1CCC[C@H]1C(=O)N[C@@H](CO)C(=O)N[C@@H](CO)C(=O)NCC(=O)N[C@@H](C)C(=O)N1CCC[C@H]1C(=O)N1CCC[C@H]1C(=O)N1CCC[C@H]1C(=O)N[C@@H](CO)C(N)=O)[C@@H](C)CC)C(=O)O
B4: SEQ ID NO: 28 (peptide)
peptide: Y[Aib]QGTFTSDLSIQK([γGlu-Palmitoyl])DKRAAQDFIEWLKAGGPSSGAPPPS-NH2
modifications: N-terminus assumed
SMILES: CCCCCCCCCCCCCCCC(=O)N[C@@H](CCC(=O)NCCCC[C@H](NC(=O)[C@H](CCC(N)=O)NC(=O)[C@@H](NC(=O)[C@H](CO)NC(=O)[C@H](CC(C)C)NC(=O)[C@H](CC(=O)O)NC(=O)[C@H](CO)NC(=O)[C@@H](NC(=O)[C@H](Cc1ccccc1)NC(=O)[C@@H](NC(=O)CNC(=O)[C@H](CCC(N)=O)NC(=O)C(C)(C)NC(=O)[C@@H](N)Cc1ccc(O)cc1)[C@@H](C)O)[C@@H](C)O)[C@@H](C)CC)C(=O)N[C@@H](CC(=O)O)C(=O)N[C@@H](CCCCN)C(=O)N[C@@H](CCCNC(=N)N)C(=O)N[C@@H](C)C(=O)N[C@@H](C)C(=O)N[C@@H](CCC(N)=O)C(=O)N[C@@H](CC(=O)O)C(=O)N[C@@H](Cc1ccccc1)C(=O)N[C@H](C(=O)N[C@@H](CCC(=O)O)C(=O)N[C@@H](Cc1c[nH]c2ccccc12)C(=O)N[C@@H](CC(C)C)C(=O)N[C@@H](CCCCN)C(=O)N[C@@H](C)C(=O)NCC(=O)NCC(=O)N1CCC[C@H]1C(=O)N[C@@H](CO)C(=O)N[C@@H](CO)C(=O)NCC(=O)N[C@@H](C)C(=O)N1CCC[C@H]1C(=O)N1CCC[C@H]1C(=O)N1CCC[C@H]1C(=O)N[C@@H](CO)C(N)=O)[C@@H](C)CC)C(=O)O
B5: SEQ ID NO: 27 (peptide)
peptide: Y[Aib]EGTFTSDLSIQK([γGlu-Palmitoyl])EKRAA[Aib]DFIEWLKNTGPSSGAPPPS-NH2
modifications: N-terminus assumed
SMILES: CCCCCCCCCCCCCCCC(=O)N[C@@H](CCC(=O)NCCCC[C@H](NC(=O)[C@H](CCC(N)=O)NC(=O)[C@@H](NC(=O)[C@H](CO)NC(=O)[C@H](CC(C)C)NC(=O)[C@H](CC(=O)O)NC(=O)[C@H](CO)NC(=O)[C@@H](NC(=O)[C@H](Cc1ccccc1)NC(=O)[C@@H](NC(=O)CNC(=O)[C@H](CCC(=O)O)NC(=O)C(C)(C)NC(=O)[C@@H](N)Cc1ccc(O)cc1)[C@@H](C)O)[C@@H](C)O)[C@@H](C)CC)C(=O)N[C@@H](CCC(=O)O)C(=O)N[C@@H](CCCCN)C(=O)N[C@@H](CCCNC(=N)N)C(=O)N[C@@H](C)C(=O)N[C@@H](C)C(=O)NC(C)(C)C(=O)N[C@@H](CC(=O)O)C(=O)N[C@@H](Cc1ccccc1)C(=O)N[C@H](C(=O)N[C@@H](CCC(=O)O)C(=O)N[C@@H](Cc1c[nH]c2ccccc12)C(=O)N[C@@H](CC(C)C)C(=O)N[C@@H](CCCCN)C(=O)N[C@@H](CC(N)=O)C(=O)N[C@H](C(=O)NCC(=O)N1CCC[C@H]1C(=O)N[C@@H](CO)C(=O)N[C@@H](CO)C(=O)NCC(=O)N[C@@H](C)C(=O)N1CCC[C@H]1C(=O)N1CCC[C@H]1C(=O)N1CCC[C@H]1C(=O)N[C@@H](CO)C(N)=O)[C@@H](C)O)[C@@H](C)CC)C(=O)O
B6: SEQ ID NO: 30 (peptide)
peptide: Y[Aib]QGTFTSDLSIQK([γGlu-Palmitoyl])DSRAA[Aib]DFIEWLKAGGPSSGAPPPS-NH2
modifications: N-terminus assumed
SMILES: CCCCCCCCCCCCCCCC(=O)N[C@@H](CCC(=O)NCCCC[C@H](NC(=O)[C@H](CCC(N)=O)NC(=O)[C@@H](NC(=O)[C@H](CO)NC(=O)[C@H](CC(C)C)NC(=O)[C@H](CC(=O)O)NC(=O)[C@H](CO)NC(=O)[C@@H](NC(=O)[C@H](Cc1ccccc1)NC(=O)[C@@H](NC(=O)CNC(=O)[C@H](CCC(N)=O)NC(=O)C(C)(C)NC(=O)[C@@H](N)Cc1ccc(O)cc1)[C@@H](C)O)[C@@H](C)O)[C@@H](C)CC)C(=O)N[C@@H](CC(=O)O)C(=O)N[C@@H](CO)C(=O)N[C@@H](CCCNC(=N)N)C(=O)N[C@@H](C)C(=O)N[C@@H](C)C(=O)NC(C)(C)C(=O)N[C@@H](CC(=O)O)C(=O)N[C@@H](Cc1ccccc1)C(=O)N[C@H](C(=O)N[C@@H](CCC(=O)O)C(=O)N[C@@H](Cc1c[nH]c2ccccc12)C(=O)N[C@@H](CC(C)C)C(=O)N[C@@H](CCCCN)C(=O)N[C@@H](C)C(=O)NCC(=O)NCC(=O)N1CCC[C@H]1C(=O)N[C@@H](CO)C(=O)N[C@@H](CO)C(=O)NCC(=O)N[C@@H](C)C(=O)N1CCC[C@H]1C(=O)N1CCC[C@H]1C(=O)N1CCC[C@H]1C(=O)N[C@@H](CO)C(N)=O)[C@@H](C)CC)C(=O)O

Molecular target: T1, human GIP receptor
Test: cell-based or functional assay

Binder | EC50 hGIP R [pM]
B1 | 19.7
B2 | 73.6
B3 | 127
B4 | 10.9
B5 | 6.7
B6 | 22.1

Molecular target: human glucagon receptor (human, UniProt P47871 26-477)
Test: cell-based or functional assay

Sequence of human glucagon receptor (P47871 26-477): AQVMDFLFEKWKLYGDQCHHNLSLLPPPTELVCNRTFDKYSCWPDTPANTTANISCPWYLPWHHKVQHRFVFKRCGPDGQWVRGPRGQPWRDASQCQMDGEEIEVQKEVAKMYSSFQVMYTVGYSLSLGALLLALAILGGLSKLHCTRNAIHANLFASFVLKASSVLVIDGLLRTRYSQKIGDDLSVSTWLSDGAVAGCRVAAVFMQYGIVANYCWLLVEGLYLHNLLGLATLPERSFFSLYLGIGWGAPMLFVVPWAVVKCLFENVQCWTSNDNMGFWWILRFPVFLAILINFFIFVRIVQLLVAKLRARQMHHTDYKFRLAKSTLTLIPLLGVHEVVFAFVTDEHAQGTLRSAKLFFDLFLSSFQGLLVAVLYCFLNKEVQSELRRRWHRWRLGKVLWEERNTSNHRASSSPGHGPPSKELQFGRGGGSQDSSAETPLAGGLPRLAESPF

Binder | EC50 hGLUC R [pM]
B1 | 8510
B2 | 20500
B3 | 46.8
B4 | 9.9
B5 | 6390
B6 | 226

Molecular target: human GLP-1 receptor (human, UniProt P43220 24-463)
Test: cell-based or functional assay

Binder | EC50 hGLP-1 R [pM]
B1 | 4.9
B2 | 9.5
B3 | 7
B4 | 3.2
B5 | 4
B6 | 12

From patent US20140206609A1 (Sanofi, published 2014)
